Data as given in patent US20220047716A1 (SUTRO BIOPHARMA, published 2022).

B1: ADC Molecule 4 (1848-H01 FolRα antibody, Y180/F404, Conjugate P) (antibody, V domains shown)
VH: EVQLVESGGGLVQPGGSLRLSCAASGFNIRTQSIHWVRQAPGKGLEWIGDIFPIDGITDYADSVKGRFTISADTSKNTAYLQMNSLRAEDTAVYYCARGSWSWPSGMDYYLDYWGQGTLVTVSS
VL: not shown
modifications: non-natural amino acids at HC-Y180 and HC-F404, each conjugated to the cleavable hemiasterlin linker-drug (Conjugate P); both sites lie in the constant region, outside the VH entry
B2: SRP2060-E05 (antibody, V domains shown)
VH: EVQLLESGGGLVQPGGSLRLSCAFSGFSLSTFGMGVGWVRQAPGKGLEWVSHIWWDDDKYYHPALKGRFTVSKDNSKNTVYLQMNSLRAEDTAVYYCGRNHFPHYYGSSHWYFNVWGQGTTVTVSS
VL: EIVMTQSPATLSLSPGERATLSCKASQDINSYLSWYQQKPGQAPRLLIYRANRLVDGIPARFSGSGSGTDYTLTISSLEPEDFAVYYCLQYDEFPYTFGGGTKVEIK
B3: SRP2060-B01 (antibody, V domains shown)
VH: EVQLLESGGGLVQPGGSLRLSCALSGFSLSTFGMGVGWVRQATGKGLEWVSHIWWDDDKYYHPALKGRFTISKDNSKNTVHLQMNSLRAEDTAVYYCGRNHFPHYYGSSHWYFNVWGQGTTVTVSS
VL: DIQMTQSPSTLSASVGDRVTITCKASQDINSYLSWYQQKPGKAPKLLIYRANRLVDGVPSRFSGSGSGTEFTLTISSLQPDDFATYYCLQYDEFPYTFGGGTKVEIK
B4: SRP2060-A06 (antibody, V domains shown)
VH: EVQLLESGGGLVQPGGSLRLSCAFSGFSLSTFGMGVGWVRQAPGKGLEWVGHIWWDDDKYYYPALKGRFTISKDNSKNTVYLQMNSLRAEDTAVYYCGRNHFPHYYGSSHWYFDVWGQGTTVTVSS
VL: DIQMTQSPSTLSASVGDRVTITCKASQDINSYLSWYQQKPGKAPKLLIYRANRLVDGVPSRFSGSGSGTEFTLTISSLQPDDFATYYCLQYDEFPYTFGGGTKVEIK
B5: ADC Molecule 4 (antibody, V domains shown)
VH: EVQLVESGGGLVQPGGSLRLSCAASGFNIRTQSIHWVRQAPGKGLEWIGDIFPIDGITDYADSVKGRFTISADTSKNTAYLQMNSLRAEDTAVYYCARGSWSWPSGMDYYLDYWGQGTLVTVSS
VL: not shown
modifications: non-natural amino acids at HC-Y180 and HC-F404 (constant region, outside this VH entry) linked to cleavable hemiasterlin linker-drug (Conjugate P), DAR about 3.7-3.8
B6: ADC Molecule 4 (antibody 1848-H01, Y180/F404, Conjugate P) (antibody, V domains shown)
VH: EVQLVESGGGLVQPGGSLRLSCAASGFNIRTQSIHWVRQAPGKGLEWIGDIFPIDGITDYADSVKGRFTISADTSKNTAYLQMNSLRAEDTAVYYCARGSWSWPSGMDYYLDYWGQGTLVTVSS
VL: not shown
modifications: non-natural amino acid (para-azidomethyl-L-phenylalanine, pAMF) at heavy chain constant sites HC-Y180 and HC-F404 (EU numbering), each conjugated to cleavable hemiasterlin linker-drug (Conjugate P); DAR 3.73
B7: ADC Molecule 20 (antibody 1848-H01, Y180/F404, Conjugate Q) (antibody, V domains shown)
VH: EVQLVESGGGLVQPGGSLRLSCAASGFNIRTQSIHWVRQAPGKGLEWIGDIFPIDGITDYADSVKGRFTISADTSKNTAYLQMNSLRAEDTAVYYCARGSWSWPSGMDYYLDYWGQGTLVTVSS
VL: not shown
modifications: non-natural amino acid (pAMF) at heavy chain constant sites HC-Y180 and HC-F404 (EU numbering), each conjugated to cleavable (ValAla) hemiasterlin linker-drug (Conjugate Q); DAR 3.81
B8: ADC Molecule 23 (antibody 1848-H01 V262E, Y180/F404, Conjugate P) (antibody, V domains shown)
VH: EVQLVESGGGLVQPGGSLRLSCAASGFNIRTQSIHWVRQAPGKGLEWIGDIFPIDGITDYADSVKGRFTISADTSKNTAYLQMNSLRAEDTAVYYCARGSWSWPSGMDYYLDYWGQGTLVTVSS
VL: not shown
modifications: non-natural amino acid (pAMF) at heavy chain constant sites HC-Y180 and HC-F404 (EU numbering), each conjugated to cleavable hemiasterlin linker-drug (Conjugate P); DAR 3.57
B9: ADC Molecule 24 (antibody 1848-H01 V262E, Y180/F404, Conjugate Q) (antibody, V domains shown)
VH: EVQLVESGGGLVQPGGSLRLSCAASGFNIRTQSIHWVRQAPGKGLEWIGDIFPIDGITDYADSVKGRFTISADTSKNTAYLQMNSLRAEDTAVYYCARGSWSWPSGMDYYLDYWGQGTLVTVSS
VL: not shown
modifications: non-natural amino acid (pAMF) at heavy chain constant sites HC-Y180 and HC-F404 (EU numbering), each conjugated to cleavable (ValAla) hemiasterlin linker-drug (Conjugate Q); DAR 3.76

Key:
Assay in all cases: cell-based or functional assay
[1] = target: human folate receptor beta (hFolRβ) (human, UniProt P14207 17-230)
Sequence of human folate receptor beta (hFolRβ) (P14207 17-230): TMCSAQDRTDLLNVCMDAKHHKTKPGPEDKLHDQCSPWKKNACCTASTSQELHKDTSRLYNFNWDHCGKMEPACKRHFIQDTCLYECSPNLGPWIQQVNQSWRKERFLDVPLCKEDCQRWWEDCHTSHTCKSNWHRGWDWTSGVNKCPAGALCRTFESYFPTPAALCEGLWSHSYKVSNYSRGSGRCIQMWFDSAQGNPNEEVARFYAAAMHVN

[2] = target: human folate receptor alpha (hFolRα) on cells (human, UniProt P15328 25-234)
Sequence of human folate receptor alpha (hFolRα) on cells (P15328 25-234 limits assumed): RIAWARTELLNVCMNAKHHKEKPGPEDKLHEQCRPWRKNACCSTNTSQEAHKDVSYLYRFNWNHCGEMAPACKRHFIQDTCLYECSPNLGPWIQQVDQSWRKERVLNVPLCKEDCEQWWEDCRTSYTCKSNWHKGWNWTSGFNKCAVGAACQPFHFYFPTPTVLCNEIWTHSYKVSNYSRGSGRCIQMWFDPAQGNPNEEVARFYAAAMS

[3] = target: T1, human folate receptor alpha (hFOLR1) on cells (human, UniProt P15328 25-234)
T1 sequence (P15328 25-234 limits assumed): as above

[4] = target: T1, human folate receptor alpha (hFOLR1) on …; remark: listed apart in the source
[5] = target: Human folate receptor alpha (hFOLR1) (human, UniProt P15328 25-234)
Sequence of Human folate receptor alpha (hFOLR1) (P15328 25-234 limits assumed): as above

Row | Binder | Igrov 2° Antibody Cell Killing, Nb-SC239, EC50 [3] [nM] | Igrov 2° Antibody Cell Killing, Nb-SC239, span [3] [%] | Cell Killing (Igrov1) EC50 [5] [nM] | Cell Killing (Igrov1) Span [5] [%] | other results
1 | B1 | – | – | – | – | cytotoxic activity on 293T cells expressing FolRβ, EC50 [1]: ~100 nM; cytotoxic activity on 293T cells expressing FolRα, EC50 [2]: < 10 nM
2 | B2 | 0.22 | 71 | – | – | –
3 | B3 | 0.045 | 76 | – | – | –
4 | B4 | 0.013 | 66 | – | – | –
5 | B5 | – | – | – | – | cytotoxic activity on Igrov1 cells in the presence of 0.5 µM un-conjugated 1848-H01, EC50 [4]: > 33 nM; cytotoxic activity on OVCAR3 cells in the presence of 0.5 µM un-conjugated 1848-H01, EC50 [4]: > 33 nM
6 | B6 | – | – | 0.083 | 80 | –
7 | B7 | – | – | 0.13 | 70 | –
8 | B8 | – | – | 0.088 | 72 | –
9 | B9 | – | – | 0.19 | 56 | –
